Test results: patent US10156559B2, “Lipocalin fusion partners” (Fred Hutchinson Cancer Research Center, priority 2012, dated 2018)

B1: HMOX1: cytoplasmic enzyme, HMOX1, expressed as a Scn fusion and cleaved from Scn (protein, UniProt P09601 1-288, looked up)
Heme oxygenase 1: MERPQPDSMPQDLSEALKEATKEVHTQAENAEFMRNFQKGQVTRDGFKLVMASLYHIYVALEEEIERNKESPVFAPVYFPEELHRKAALEQDLAFWYGPRWQEVIPYTPAMQRYVKRLHEVGRTEPELLVAHAYTRYLGDLSGGQVLKKIAQKALDLPSSGEGLAFFTFPNIASATKFKQLYRSRMNSLEMTPAVRQRVIEEAKTAFLLNIQLFEELQELLTHDTKDQSPSRAPGLRQRASNKVQDSAPVETPRGKPPLNTRSQAPLLRWVLTLSFLVATVAVGLYAM
modifications: expressed as Scn fusion, cleaved
B2: Adv2: cytoplasmic viral protein Adv2 expressed as a Scn fusion and cleaved from Scn (protein, UniProt P68978 18-159, looked up)
Early E3 18.5 kDa glycoprotein: AKKVEFKEPACNVTFKSEANECTTLIKCTTEHEKLIIRHKDKIGKYAVYAIWQPGDTNDYNVTVFQGENRKTFMYKFPFYEMCDITMYMSKQYKLWPPQKCLENTGTFCSTALLITALALVCTLLYLKYKSRRSFIDEKKMP
modifications: expressed as Scn fusion, cleaved

Test: SDS PAGE analysis of Scn fusion protein before and after cleavage
Format: physicochemical
Conditions: fusion protein cleaved from Scn, expressed in mammalian cell culture
Text: The cloned knottin or library was cotransfected into HEK293 cells and media was collected as described (“Daedalus: A Robust, Turnkey Platform for Rapid Production of Decigram Quantities of Active Recombinant Proteins in Human Cell Lines Using Novel Lentiviral Vectors.” Bandaranayake A. D., et al., Nucleic Acids Res. (2011) 39(21):e143). Fusion protein was isolated using nickel IMAC and cleaved with recombinant TEV protease. Excess siderocalin was removed via size exclusion chromatography, a process which also allowed the buffer to be switched to 10 mM ammonium formate. The knottin containing fractions were then lyophilized.
FIG. 19 depicts the expression of a Scn fusion with a cytoplasmic viral protein Adv2 and the corresponding SDS PAGE analysis according to one aspect of the present disclosure. […] Additionally this fusion protein has further utility because it can be used to raise antibodies against the viral antigen in rats, mice or rabbits using the corresponding Scn ortholog.
FIG. 21 depicts the expression of a Scn fusion with a knottin protein, Imperatoxin, and the corresponding SDS PAGE analysis according to one aspect of the present disclosure. […] Additionally, this fusion protein has further utility because it can be used to raise antibodies against the […] in rats, mice or rabbits using the corresponding Scn ortholog.

Row | Molecule | stability of the protein after separation from Scn
1 | B1 | stable even after separation from Scn
2 | B2 | stable even after separation from Scn
